Test results as given in US11708609.

Molecular target: human recombinant FOXO1 (Origene #TP300477) (UniProt Q12778)
Sequence (Q12778 whole entry): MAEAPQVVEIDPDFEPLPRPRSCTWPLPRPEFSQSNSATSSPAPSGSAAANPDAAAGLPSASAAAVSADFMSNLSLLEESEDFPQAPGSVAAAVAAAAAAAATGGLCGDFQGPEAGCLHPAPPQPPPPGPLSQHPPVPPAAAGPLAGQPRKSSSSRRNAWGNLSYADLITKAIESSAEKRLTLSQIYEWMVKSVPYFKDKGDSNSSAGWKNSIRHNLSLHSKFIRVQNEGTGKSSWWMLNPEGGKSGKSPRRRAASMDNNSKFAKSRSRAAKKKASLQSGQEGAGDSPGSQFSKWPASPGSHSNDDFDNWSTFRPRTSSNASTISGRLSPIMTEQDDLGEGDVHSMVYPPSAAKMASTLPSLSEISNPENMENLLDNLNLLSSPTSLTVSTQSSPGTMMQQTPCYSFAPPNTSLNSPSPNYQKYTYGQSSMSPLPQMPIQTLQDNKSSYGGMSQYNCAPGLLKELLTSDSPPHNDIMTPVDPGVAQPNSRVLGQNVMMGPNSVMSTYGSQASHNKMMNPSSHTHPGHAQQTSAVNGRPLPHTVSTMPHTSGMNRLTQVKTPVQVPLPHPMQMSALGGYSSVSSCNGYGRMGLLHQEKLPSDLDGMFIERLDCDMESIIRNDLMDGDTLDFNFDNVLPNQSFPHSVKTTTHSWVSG

microtubule-associated Ser/Thr kinase 4 (MAST4), immunoprecipitated from lysates of neuron-differentiated SH-SY5Y cells or of human temporal lobe autopsy samples, sequence (chain, as listed by the source): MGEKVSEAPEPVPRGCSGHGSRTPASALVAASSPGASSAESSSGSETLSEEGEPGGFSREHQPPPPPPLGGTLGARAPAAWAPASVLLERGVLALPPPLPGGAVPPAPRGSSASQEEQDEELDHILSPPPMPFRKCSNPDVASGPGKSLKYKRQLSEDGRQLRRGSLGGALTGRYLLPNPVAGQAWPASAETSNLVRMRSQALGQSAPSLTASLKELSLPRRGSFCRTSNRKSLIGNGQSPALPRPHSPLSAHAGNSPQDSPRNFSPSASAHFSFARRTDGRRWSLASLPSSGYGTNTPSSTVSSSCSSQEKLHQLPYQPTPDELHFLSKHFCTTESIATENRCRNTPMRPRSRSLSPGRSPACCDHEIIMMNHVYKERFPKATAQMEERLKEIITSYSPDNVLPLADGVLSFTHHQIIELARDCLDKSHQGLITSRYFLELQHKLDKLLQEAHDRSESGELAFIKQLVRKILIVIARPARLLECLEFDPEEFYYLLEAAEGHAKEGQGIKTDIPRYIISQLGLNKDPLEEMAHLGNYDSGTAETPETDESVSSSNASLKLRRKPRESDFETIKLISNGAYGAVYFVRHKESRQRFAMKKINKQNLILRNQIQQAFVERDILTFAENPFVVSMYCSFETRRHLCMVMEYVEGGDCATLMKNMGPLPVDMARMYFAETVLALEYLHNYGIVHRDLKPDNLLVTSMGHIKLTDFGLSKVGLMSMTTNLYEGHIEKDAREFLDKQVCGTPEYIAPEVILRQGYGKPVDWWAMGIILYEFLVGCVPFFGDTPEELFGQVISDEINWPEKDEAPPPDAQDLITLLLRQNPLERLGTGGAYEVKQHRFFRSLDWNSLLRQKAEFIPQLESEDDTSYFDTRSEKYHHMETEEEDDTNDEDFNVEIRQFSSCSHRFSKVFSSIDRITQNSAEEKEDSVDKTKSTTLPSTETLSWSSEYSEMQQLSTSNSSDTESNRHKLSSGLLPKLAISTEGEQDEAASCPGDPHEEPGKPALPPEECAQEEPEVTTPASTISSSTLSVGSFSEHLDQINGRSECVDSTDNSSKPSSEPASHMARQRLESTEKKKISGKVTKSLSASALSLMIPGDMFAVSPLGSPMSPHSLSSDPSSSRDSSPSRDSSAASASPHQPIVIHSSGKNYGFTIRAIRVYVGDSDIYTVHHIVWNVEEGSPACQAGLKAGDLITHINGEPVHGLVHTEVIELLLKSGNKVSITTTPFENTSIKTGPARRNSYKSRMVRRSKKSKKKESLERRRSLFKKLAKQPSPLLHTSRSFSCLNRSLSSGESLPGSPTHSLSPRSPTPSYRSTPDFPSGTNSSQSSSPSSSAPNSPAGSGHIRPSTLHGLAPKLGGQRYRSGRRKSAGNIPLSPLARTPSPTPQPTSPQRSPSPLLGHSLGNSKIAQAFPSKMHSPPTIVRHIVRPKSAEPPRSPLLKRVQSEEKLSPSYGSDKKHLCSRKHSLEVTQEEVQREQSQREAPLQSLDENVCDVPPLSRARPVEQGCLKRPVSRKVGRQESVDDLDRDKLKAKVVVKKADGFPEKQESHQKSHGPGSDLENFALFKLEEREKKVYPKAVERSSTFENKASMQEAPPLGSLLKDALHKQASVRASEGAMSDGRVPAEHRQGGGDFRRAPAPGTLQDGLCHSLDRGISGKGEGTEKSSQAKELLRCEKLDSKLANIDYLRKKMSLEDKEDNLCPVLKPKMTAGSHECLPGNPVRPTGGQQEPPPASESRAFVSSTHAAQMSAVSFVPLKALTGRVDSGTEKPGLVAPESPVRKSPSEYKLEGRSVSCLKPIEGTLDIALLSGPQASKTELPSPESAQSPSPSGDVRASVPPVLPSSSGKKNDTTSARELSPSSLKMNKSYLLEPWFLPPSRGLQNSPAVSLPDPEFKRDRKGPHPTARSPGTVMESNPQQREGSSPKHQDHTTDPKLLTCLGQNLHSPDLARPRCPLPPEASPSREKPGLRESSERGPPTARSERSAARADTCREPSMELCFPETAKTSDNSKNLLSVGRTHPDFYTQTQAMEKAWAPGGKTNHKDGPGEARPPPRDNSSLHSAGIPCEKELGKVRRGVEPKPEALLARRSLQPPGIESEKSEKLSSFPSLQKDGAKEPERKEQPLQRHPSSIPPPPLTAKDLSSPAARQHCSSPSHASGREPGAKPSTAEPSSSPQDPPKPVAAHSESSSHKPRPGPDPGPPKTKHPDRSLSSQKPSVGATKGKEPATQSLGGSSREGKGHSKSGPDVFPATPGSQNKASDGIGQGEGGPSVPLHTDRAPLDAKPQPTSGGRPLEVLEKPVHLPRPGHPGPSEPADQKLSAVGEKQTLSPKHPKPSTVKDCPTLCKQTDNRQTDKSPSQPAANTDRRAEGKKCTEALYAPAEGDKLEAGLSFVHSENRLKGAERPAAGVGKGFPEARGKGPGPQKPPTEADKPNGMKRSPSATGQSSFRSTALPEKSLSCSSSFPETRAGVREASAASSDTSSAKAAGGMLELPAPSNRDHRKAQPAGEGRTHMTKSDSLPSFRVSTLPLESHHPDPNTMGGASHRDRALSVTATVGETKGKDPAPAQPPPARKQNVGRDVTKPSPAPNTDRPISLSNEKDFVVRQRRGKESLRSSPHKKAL

Substance: MAST4E682A, putative kinase-null MAST4 mutant
- FOXO1 phosphorylation in an in vitro kinase assay with immunoprecipitated MAST4 mutant: Immunoprecipitates of MAST4E682A did not phosphorylate FOXO1 (not shown)

Substance: microtubule-associated Ser/Thr kinase 4 (MAST4), immunoprecipitated from lysates of neuron-differentiated SH-SY5Y cells or of human temporal lobe autopsy samples
- FOXO1 phosphorylation (pSer-FOXO1) in an in vitro kinase assay with immunoprecipitated MAST4 and recombinant FOXO1: Increased FOXO1 phosphorylation was observed in MAST4 immunoprecipitates from cells treated with 5 µM but not 50 µM 27OHC
